Experiment [1] addresses SARS-CoV2 RBD-8h (Delta) (SARS-CoV-2 (Delta)) (UniProt P0DTC2). The experiment in a line: BLI, IgG protein immobilized, monomeric RBD-8h analyte. (In general: Biolayer interferometry detects binding as a change in optical thickness at a sensor tip.)
The target in experiment [2] is SARS-CoV2 RBD-8h (Gamma) (SARS-CoV-2 (Gamma)) (UniProt P0DTC2). The experiment is described as above.

The Kd is the concentration at which binding is half-saturated. A low value points to tighter binding. By koff is commonly meant the rate constant with which the complex falls apart. Lower therefore signals a long-lived complex. As a reminder, the kon is a measure of how fast the partners come together. The low end stands for slower complex formation, the high end for faster complex formation. In experiment [1], VIR-7831 (sotrovimab) (antibody) came in with a Kd of less than 0.1 nM, a koff of less than 1e-07 s⁻¹ and an on-rate (kon) of 100000 M⁻¹ s⁻¹. The substance further showed a kon in experiment [2] of 97000 M⁻¹ s⁻¹.

The record behind these values is US20240398911A1.
